Read-outs that look alike come from different tables or passages of the source. Bridges are numbered along the chain shown (N, C = ends). Where no end group is shown, it is not given here.
Key:
[1] = target: T1, neutral endopeptidase (NEP) (Homo sapiens, UniProt P08473); assay: Digest of CNP variants by Neutral Endopeptidase in vitro; type: in vitro ADME; conditions: recombinant human neutral endopeptidase (NEP), pH 7.4, read-out: half life norm. (converted)
T1 construct: purchased Enzo Life Sciences GmbH, Lörrach, Germany
T1 sequence (P08473 whole entry): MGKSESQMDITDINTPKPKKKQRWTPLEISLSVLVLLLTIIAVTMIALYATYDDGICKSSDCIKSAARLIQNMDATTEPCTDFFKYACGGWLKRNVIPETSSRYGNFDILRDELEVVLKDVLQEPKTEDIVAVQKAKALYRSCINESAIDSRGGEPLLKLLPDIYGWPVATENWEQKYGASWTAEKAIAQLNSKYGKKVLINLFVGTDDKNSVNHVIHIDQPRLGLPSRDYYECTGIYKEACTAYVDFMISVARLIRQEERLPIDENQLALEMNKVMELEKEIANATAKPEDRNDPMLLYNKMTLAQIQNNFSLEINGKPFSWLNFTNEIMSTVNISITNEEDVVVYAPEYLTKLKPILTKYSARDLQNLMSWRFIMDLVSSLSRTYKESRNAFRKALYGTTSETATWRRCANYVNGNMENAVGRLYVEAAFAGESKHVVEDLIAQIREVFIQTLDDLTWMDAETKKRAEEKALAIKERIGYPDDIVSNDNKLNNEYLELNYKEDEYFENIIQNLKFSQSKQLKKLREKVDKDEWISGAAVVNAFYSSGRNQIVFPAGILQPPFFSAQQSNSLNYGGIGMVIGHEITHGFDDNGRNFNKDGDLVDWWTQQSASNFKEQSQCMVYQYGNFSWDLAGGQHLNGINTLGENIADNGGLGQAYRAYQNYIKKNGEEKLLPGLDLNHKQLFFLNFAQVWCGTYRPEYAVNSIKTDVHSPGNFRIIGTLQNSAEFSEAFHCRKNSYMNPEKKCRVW
Text: Samples were taken at different time intervals. […] The resulting reaction products were assigned using HPLC-MS.

[2] = animal studies; cited from earlier work
[3] = doses up to 15 μg/kg, healthy volunteers; cited from earlier work
[4] = in vivo; cited from earlier work
[5] = after intravenous (iv) administration; cited from earlier work

CC[C@H](C)[C@@H]1NC(=O)[C@H](CCCNC(=N)N)NC(=O)[C@H](CC(=O)O)NC(=O)[C@H](CC(C)C)NC(=O)[C@H](CCCCN)NC(=O)[C@H](CC(C)C)NC(=O)CNC(=O)[C@H](Cc2ccccc2)NC(=O)[C@@H](NC(=O)CNC(=O)[C@H](CCCCN)NC(=O)[C@H](CO)NC(=O)[C@H](CC(C)C)NC(=O)CN)CSSC[C@@H](C(=O)O)NC(=O)CNC(=O)[C@H](CC(C)C)NC(=O)CNC(=O)[C@H](CO)NC(=O)[C@H](CCSC)NC(=O)[C@H](CO)NC(=O)CNC1=O [CNP-22]
half-life at 100 μg CNP equivalents/mL [1]: 19.2 min

BMN-111: modified recombinant human C-type Natriuretic Peptide where 17 amino acids have been added to form a 39 amino acid CNP pharmacological analog (PGQEHPNARKYKGANKKGLSKGCFGLKLDRIGSMSGLGC; disulfide 23-39; chains of the INN, looked up)
immunogenicity [2]: immunological response | cardiovascular effect [3]: mild hypotension | half-life [4]: 20 min

CNP: C-type natriuretic peptide, as discussed in the background
half-life [5]: 2 min
